Consider 1 protein from PMC4937415, “Peroxiredoxin 1 interacts with and blocks the redox factor APE1 from activating interleukin-8 expression” (Scientific Reports, 2016).

This series deals with the molecule itself. Nature of the series: SEC; as a6, but HeLa cells treated with 20 μM E3330 for 4 h; fractions 23 to 28 probed with anti-PRDX1. On the technique in general: SEC sorts molecules by how far they enter the pores of the column.

B1: Peroxiredoxin 1 (PRDX1) (natural protein, human (endogenous in HeLaS and HeLa), UniProt Q06830 1-199, looked up)
chain: MSSGNAKIGHPAPNFKATAVMPDGQFKDISLSDYKGKYVVFFFYPLDFTFVCPTEIIAFSDRAEEFKKLNCQVIGASVDSHFCHLAWVNTPKKQGGLGPMNIPLVSDPKRTIAQDYGVLKADEGISFRGLFIIDDKGILRQITVNDLPVGRSVDETLRLVQAFQFTDKHGEVCPAGWKPGSDTIKPDVQKSKEYFSKQK
notes: endogenous PRDX1 of HeLaS and HeLa cells; monomer 22 kDa, dimeric form 44 kDa on blots; source: endogenous, HeLaS nuclear, cytosolic and total extracts; endogenous, HeLa nuclear extract
A word on the stoichiometry N: it is a count of units in the complex or per binding partner. Regarding B1, the “stoichiometry N” value is 2.
